Measured values taken from patent US20160040149A1, “Compositions Having Dicamba Decarboxylase Activity and Methods of Use” (priority 2013, published 2016).
Where a chain is given by its changes, count along the chain named.

B1: 49 (protein, listed as Streptomyces sp.)
chain: MAKIIALEEHFSDPAVAKAGAARARALSPGFAASYSPASGLPYSPSPEVLENLAEKRLADMDAGGITMQVLSGLGAQTVPADVAPALVAGSNDKAAAAVRAHPDRFAAFAALPTATPEAAVAELDRSVNELGFVGTLIMGRTEGEFLDAPRFEPILARAAALKVPVFLHPGVPPREITDSNYAAGLPTGIGTRLQTAAWGWHQETAVHFLHLVHSGVLDRYPDLQFILGHWGEMIPFYLDRVDEALPQRATGLDRSFHEYFRENVYLAPSGMWSQAQLRFCLETVPLERIVFAVDYPFIGNEGAVPFLEKAELPQADKRKIAHENAERLLGL
B2: 54 (protein, listed as Streptomyces sp.)
chain: B1 chain with R25Q, T116A, V128I, D223G, Q315E
B3: 52 (protein, listed as Streptomyces sp.)
chain: B1 chain with R25Q, G75S, T116A, M234T, V285F, Q315E
B4: 59 (protein)
chain: MAPSVIDAHAHFLPGSLVTALRSRSDAPDIRTDSNGGESFGIYRTRMPYGRTYDALDVRLARMDELGVDRQILSLPGLFGIDSRPVSQALPLVRAFNDGVADLVRKHPDRFSGIAALPLADLDAAQEEYRRARGDLGLSGLILPGDTFVSVAAAERVRPLFELAATIGGLIFVHPGPLPDETGSAVDAPAPHTDSVVHRRVTVDIQNRMTEVMVTLALTDFLAPYPSVPVQVANLGGSLPFVIERMDHVYALRNPEAPPPSLSLRSLYVDAASLGPRAIALAAEVYGADRVLFGSDYPIFDDGRCLDAVRQTRLSPDARALIAGGNAARMLTQT
modifications: alpha proteobacterium
B5: 55 (protein, listed as Serratia sp.)
chain: MAKIICLEEHTLDKALVMASMPAALEQAPFLSDWGKTVTDGNLPDRSRPQIEKNDLINIKGADIGRGRLDDMDVAGITMQVLSVGGFPHLISAAEGVDLNRAANDRLADAVNAHPDRFAAFATLPWAQPDSAEKELERAVKELGFKGALLNGRPSTHFLDHPDYDGLLARFNALGVPLYLHPGLPVRSVQQAYYGGFSDEVTARLSMFGWGWHHEAGIHLLRLILSGAFDKYPNLQVISGHWGEMLPFWLQRLDDSLPQAATGLRRTIAQTFKEQVYVTPSGMLTLPHFQFIYALLGAERIIFSVDYPYQTLDGVKAFIQSLPVPEEAKEAIAFRNAERLLGLTS
B6: 57 (protein)
chain: MAKLICVEEHVLDPAVGAATQSLVRAEAPYLPDWGSRVLDGRHVADRSRPHVIAPSESARKALEMGEPRLADMDAASIDMQVLSYGGFPQLLPAAQAIDLNRAANDKLALAAQAHPARFAGFATLPWQAPEAAARELERAVKQLGLKGALINGRPGDTFLDDARYAPILAAFDELKVPLYVHPGLPLPAVQAPYYGGFERELSARLAMFAWGWHNEAGIQVVRMLLAGVFDRHPRLQLISGHWGEMVPFFLQRLEDSIPQEASGLQRPIVQTYREHVYISPSGMFTLPHFQFIHALMGAQRILYSIDYPYQSLDGARAFIERLPISDTDKALIAHRNAERLLHL
modifications: Collimonas fungivorans
B7: 48 (protein, listed as Amycolatopsis mediterranei)
chain: MASMKLYGLEEHFVTADVIEAWRRRDPGLAEPMMKWAVASDITPALLDVDGGRIAAMDDAGIDTTVLSLTTPGLQNLDAAEAVALQAPTNDLIAAAVRRHPGRFQGFATLATSAPAAAADELRRAVTELGLNGALVNANSRGRALDAPGFWDIYEAAEDLRAPVYLHPGVPVPAVTEAYYRGFGEPVNSMLATGAFGWHYDAGLTILRMIVAGVFDRFPGLQVILGHWGEVVLFYLDRVAAMDKLTALRRPIAEYFRSNIFITPGGISSHKYLRWSLETVGVERIMYASDYPFNTERAGSARRFLDTAPVDEAGRERIAYRNWEELIAGIRR
B8: 51 (protein, listed as Mycobacterium gilvum)
chain: MARVIAIEEHYAHPGLQPAEALANLRKHPQLARIQDKLEDLGAGRLADMDAAGIDMQVLSHTVPGAEALPAAQAVDVVRQTNDDLAEVIAAHPDRFAGFAALPMRDPQAAATELQRAVGTLGFCGAMINGLIEGRFLDHPDFTPLLSTAADLGVPLYLHPSFPPPQVAQIYFGGLPPVLADLLATAGWGWHAETALHVLRLISTGVFDRLPELRVIVGHMGEMIPFALARIDTVLSPMTELRQPVAQYFQTNVWFTTSGYTTFPPLQCALSTVGIDRLIFSVDYPYTDNASARALLDTAPISPVDREKLAHATVEALLRV
B9: 50 (protein, listed as Streptomyces sp.)
chain: MARIVTLEEHWTDPAVTAAGMPNLLDHVPGYAAAFDPDTGMPYPRHPELLEDLGAARIADMDRHGITTQVLSLVNTFLPADVAPRLTAAANDAMAAAVEAFPGRFAAFATLPTAVPGAAADELRRCVGELGFVGTMIMGRTDGEFLDQPRFDPILRAASDLSVPVYLHPAPPPVAVSEASYAGGLSPAVSAAFRLAAWGWHQETAVHLLHLVLAGVLDRYPGLQFVLGHWGEFIPFYLDRLDESMPRRMTGLDRTFREYFRDNVFITPSGMFSQAQLRYCADTVGTDRIIHSVDFPMLGNEGAVSFLTDSHLSREDQEKIAHGNADALLGLG
B10: 47 (protein, listed as Serratia odorifera)
chain: MAKIICLEEHTLDKALVMASMPAALAQAPFLSDWGKTITDGNLPDRSRPQIEKNDLINVKGADIGRGRLDDMDEAGITMQVLSVGGFPHLISAAEGVDLNRAANDRLANAVNAHPDRFAAFATLPWAQPDAAEKELERAVKELGFKGALLNGRPSIHFLDHPDYDGLLARFNALGVPLYLHPGLPVRSVQQAYYSGFSDEVTARLSMFGWGWHHEAGIHLLRLILSGAFDKYPNLQVISGHWGEMLPFWLQRLDDSLPQAATGLRRTITQTFREQVYVTPSGMLTLPHFQFIYALLGAERILFSVDYPYQTLDGVKAFIQSLPVPEEAKEAIAFRNAERLFGLTS
B11: 53 (protein, listed as Granulicella tundricola)
chain: MARTITLEEHFVTDSFLRATGAYDKPAPPWLAQLQPKLLDLGDGRIAAMDEAGIDLQVLSLAALGFDALDAATATPLVHDINDELAAAVRANPTRLAAFASLALKDPQSAARELERAIQKLGFRGVLLDGTTDGLFLDDPRFTPVFEAAVALNVPIYLHPAPPPESVFDTYFTGLPEGVGQMLSIAGWGWHAETALHTLRLITNGVFDRYPTLQLIIGHMGEMLPMALARTSKALSHAARLRQPVAAYFQSNIHLTTSGYFTQPPLRCALDVVGIDRLMFSIDYPFSANTLGRDYLTELEQTLTPEDLAKLIHRNAESLLNLS
B12: 60 (protein, listed as Catenulispora acidiphila)
chain: MARGFVRTAVVPGFWDAGWRGAGQPGGMRVDVHAHLFPAAYLDLLDDFRQDGGVGTREVRALGGGDGERELRLRLAAMDAVGVDVQLLSTCPQGPYTGDPTAAVEAARCANVALAQTVAQYPERLRALAALPLPHILASVDELNRAMEQDGMLGAAVGTSILGRPLSHPDFEPLFAALNRRKGVLFVHPIGESAGSPLMQASKLDRVIGYAAEVSTAILQLFQAGLTVKYPDIRIIAPHMGGYLPFLIQRLDRHRDWYLPKDAPSAGQLMRGIAYDTANPLPAALRLTAEVVGPERLLLGTDYPFEQGPSLRDHIEYILAAGLPEAQAKMIVDVNAADFLDMRSGAEQPPV
B13: 46 (protein, listed as Rhodococcus opacus)
chain: MARIITLEEHYLDPAIAAASAPLARELSPDFAAAYDPASGLSYTPSAQVLQDLGQRRIADMDTHGISMQVLSCLTTQQVPADVAPDLVRAANDTAAAAVRAHPDRFAAFAALPTTAPDAAATELARCIDDLGFVGTMINGRTDGEFLDAPRFDPILATAAARNVPIYLHPAVPPRATSDSNYAGLAPLVTARLQTSAWGWHQETAVHFLHLVLSGVLDRYPNLQFILGHWGEMIPFYLDRLDEALPQAVTNLDRTISDYVRENVYITPSGMFNQAQLQYCVETLGVDRILYSVDYPFIGNDGAVSFLDEANLPDEAKHQIAHQNTEKLLGL
B14: 58 (protein)
chain: MARVIALEEHYATTEFLRGPGTWLASRPGIVEPAGDLGDGRIAAMDQAGVDLAVLSLAAPGVEQLDPDDAVRLARDCNDQLAAAVRRYPDRLAGFATVPTSAPDRAADELERAVRGLGFPGAVINGHSRGRYLDDPFFEPVLARAAELQAPIYLHPTIPPAGVIESSYAGFAEPVTFALATVGWGWHINTATHALRMILGGVFDRHPSLQMIIGHMGEATSFMLPRFDATLKPELTGLNHPVSSYLRENFHYTFANFNDHATYANLVAQVGIERVAFSADYPFGSMVDARAFLDGLPLSDDERAAISHRNAEKLLGL
modifications: Mycobacterium colombiense
B15: 56 (protein)
chain: MAKIICLEEHYLDSELGRACMPVALEQAPFLGDWGKTVADGHNPDRSRPQIEKNALINAKGADLGSRRLRDMDEAGITLQILSVGGFPQLAPEDEAVTLNTAANDRLAEAVRNHPDRFAAFATLPWAQPKDAENELVRAVEKLGFKGALLNGRPSSCFLDHPDYDSLLSRFNKLNVPLYLHPGLPLKSVQQAYFTGFSAEVNARLSMFGWGWHHEAGIHLLRLMLSGAFDKYPNMQVISGHWGEMLPFWLQRLDDSLPLAATGLSRTLTRTFQEHVYVTPSGMLTLPHFKFIYELMGAERILFSVDYPYQTLDGVKTFIDSLPVNKAEKEAIAFRNAERLLGITA
modifications: Enterobacter aerogenes

Test: Saturation mutagenesis of SEQ ID NO:109: dicamba decarboxylation activity of point mutants (CO2 released), fold of backbone (Tables 7, 8, Megatable 1)
Conditions: decarboxylation activity (CO2 released) of point mutant vs unmutated backbone protein; backbone SEQ ID NO: 109

| Molecule | Fold Activity [fold] |
| --- | --- |
| B1 | 2 |
| B2 | 1.4 |
| B3 | 1.9 |
| B4 | 0.9 |
| B5 | 1.5 |
| B6 | 2 |
| B7 | 1.5 |
| B8 | 1.7 |
| B9 | 1.7 |
| B10 | 1.2 |
| B11 | 1.6 |
| B12 | 1.6 |
| B13 | 1.1 |
| B14 | 1.5 |
| B15 | 1.3 |
